In general, stoichiometry N refers to the number of molecules, sites or subunits per partner or assembly.

Values joined by “and” are separate entries in the source; they are usually repeats but may differ in a detail not shown here. Equal values may be shown once.

The record followed here is PMC11347170, “Staphylococcal exoribonuclease YhaM destabilizes ribosomes by targeting the mRNA of a hibernation factor”.

In assay [1] the target is His6-YhaM^WT, recombinant wild-type S. aureus 3'-5' exoribonuclease YhaM (Staphylococcus aureus USA300 JE2). The assay can be described thus: SEC; 60 uM YhaM on HiPrep 16/60 Sephacryl S-100 HR, buffer B (40 mM HEPES pH 7.5, 0.5 M KCl, 10% glycerol); size by gel filtration standard. (In gel filtration, larger molecules generally elute earlier.)
For assay [2] the target is unchanged. The experiment in a line: mass photometry; TwoMP mass photometer, 30 nM protein, 50 mM Na-Tricine pH 8.0, 100 mM KCl without metal or with 1 mM MnSO4, MgSO4 or CoSO4.
The target in assay [3] is YhaM^WT expressed in the S. aureus ΔyhaM mutant from a plasmid under its native promoter (Staphylococcus aureus USA300 JE2). The experiment in a line: cross-linking; in vivo, S. aureus ΔyhaM cells carrying pYhaM^WT (OD600 0.8), 1 mM glutaraldehyde for 1-2 h at room temperature, Western blot with anti-YhaM. Background: A western blot detects proteins with antibodies after separation by electrophoresis.

In the case of “His6-YhaM^WT, recombinant wild-type S. aureus 3'-5' exoribonuclease YhaM (enzyme)”, the stoichiometry N in assay [1] was found to be 6. Also, in assay [2], the percent of particles in a hexameric state with Mn(II) came to 80%; the stoichiometry N is 2 and 6.
For the substance “YhaM^WT expressed in the S. aureus ΔyhaM mutant from a plasmid under its native promoter (enzyme)”, the stoichiometry N in assay [3] was 6 and 2 and 4.
